This passage reports Km and stoichiometry N results from publication PMC7801690, “Crystal structure of a thermophilic fungal cyanase and its implications on the catalytic mechanism for bioremediation” (Scientific Reports, 2021).

Data set [1] relates to N#CO. In words: purified protein. The note with it: apparent Km; 0.05 to 3.0 mM potassium cyanate; bicarbonate-dependent.
Description: cyanase activity (ammonium release), Lineweaver-Burk on Tl-Cyn
Data set [2] has as its target cyanase from the thermophilic fungus Thermomyces lanuginosus (Tl-Cyn) (Thermomyces lanuginosus). In words: crystal structure; sitting-drop vapour diffusion at 20 °C, protein 13 mg/mL; reservoir 2% Tacsimate (pH 8.0), 0.1 M Tris (pH 8.5), 16% PEG 3,350; malonate and formate bound in the active sites; 2.2 Å.

Consider Tl-Cyn (Thermomyces lanuginosus), for which the Km – broadly, the substrate concentration at which the rate is half of its maximum – in data set [1] was 360 ± 40 µM.

In the case of “cyanase from the thermophilic fungus Thermomyces lanuginosus (Tl-Cyn) (enzyme)”, the stoichiometry N (in general, a count of units in the complex or per binding partner) in data set [2] is 10.
